For the data set, the system named is Escherichia coli TOP10. The experiment in a line: shrunken log2 fold change of peptide-encoding DNA abundance (4.5 h post-induction vs induction); higher = less antimicrobial activity (less host growth inhibition). The conditions noted are these: time post-induction: 4.5 h; library: site-saturation at positions 5, 18, 19, 20.
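Further: peptides expressed intracellularly from a pBAD plasmid library in pooled LB shake-flask culture, induced with 0.3% L-arabinose, DNA abundance read by NGS, three biological replicates, DESeq2 with apeglm shrinkage.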

Regarding RRIRHRPPRLPRPRPRPWHPPRP, the “shrunken log2 fold change” value is -0.801.
In the case of RRIRSRPPRLPRPRPRPSCDPRP, the “shrunken log2 fold change” value is -0.444.
As for RRIRQRPPRLPRPRPRPMNEPRP, the “shrunken log2 fold change” value is -0.0541.
Regarding RRIRYRPPRLPRPRPRPVNEPRP, the “shrunken log2 fold change” value was -0.109.
Consider RRIRERPPRLPRPRPRPIYLPRP, for which the “shrunken log2 fold change” value was -0.649.
As for RRIRKRPPRLPRPRPRPRNWPRP, the “shrunken log2 fold change” value was 0.95.
Turning to RRIRARPPRLPRPRPRPKWMPRP, the “shrunken log2 fold change” value turned out to be 0.191.
Turning to RRIRNRPPRLPRPRPRPARHPRP, the “shrunken log2 fold change” value is 0.0771.
On to RRIRVRPPRLPRPRPRPFDIPRP, for which the “shrunken log2 fold change” value is 0.145.
The result for RRIRFRPPRLPRPRPRPFAVPRP reads -0.354; that for RRIRWRPPRLPRPRPRPKEVPRP, 0.0717; that for RRIRRRPPRLPRPRPRPQIAPRP, 0.31.
Take RRIRGRPPRLPRPRPRPTFSPRP: the “shrunken log2 fold change” value was 0.162.
Under RRIRWRPPRLPRPRPRPPSTPRP stands 0.402.
Take RRIRFRPPRLPRPRPRPWMQPRP: the “shrunken log2 fold change” value was -0.139.
The result for RRIRCRPPRLPRPRPRPVTRPRP reads 0.197.
On to RRIRQRPPRLPRPRPRPRETPRP, for which the “shrunken log2 fold change” value amounted to 0.248.
On to RRIRGRPPRLPRPRPRPSHNPRP, for which the “shrunken log2 fold change” value was -0.189.
Turning to RRIRVRPPRLPRPRPRPNKRPRP, the “shrunken log2 fold change” value is -0.158.
Take RRIRNRPPRLPRPRPRPVYVPRP: the “shrunken log2 fold change” value was -0.284.
Turning to RRIRSRPPRLPRPRPRPHLQPRP, the “shrunken log2 fold change” value came out at 0.0575.
Take RRIRTRPPRLPRPRPRPSNYPRP: the “shrunken log2 fold change” value was -1.22.
With RRIRSRPPRLPRPRPRPQTCPRP, the “shrunken log2 fold change” value is -0.0978.
For the sequence RRIRNRPPRLPRPRPRPMLVPRP, the “shrunken log2 fold change” value was -0.0299.
Under RRIRYRPPRLPRPRPRPLRGPRP stands 0.561; under RRIRCRPPRLPRPRPRPKWFPRP, 0.0996; under RRIRARPPRLPRPRPRPDDFPRP, -0.013.
The result for RRIRGRPPRLPRPRPRPHPVPRP reads 0.412.
The result for RRIRCRPPRLPRPRPRPQRVPRP reads -0.158; that for RRIRSRPPRLPRPRPRPKNWPRP, 0.176; that for RRIRPRPPRLPRPRPRPKPCPRP, -0.044.
As for RRIRCRPPRLPRPRPRPFVEPRP, the “shrunken log2 fold change” value was -0.507.
In the case of RRIRQRPPRLPRPRPRPCKCPRP, the “shrunken log2 fold change” value was -0.000687.
Under RRIRRRPPRLPRPRPRPCDWPRP stands 0.156.
The result for RRIRSRPPRLPRPRPRPVFEPRP reads -0.0222.
Consider RRIRTRPPRLPRPRPRPLWTPRP, for which the “shrunken log2 fold change” value was -0.0962.
For RRIRSRPPRLPRPRPRPGDWPRP, the “shrunken log2 fold change” value was determined as 0.223.
For RRIRLRPPRLPRPRPRPHPIPRP, the “shrunken log2 fold change” value worked out at 0.0174.
With RRIRERPPRLPRPRPRPFIIPRP, the “shrunken log2 fold change” value is -0.769.
In the case of RRIRFRPPRLPRPRPRPQDYPRP, the “shrunken log2 fold change” value came out at 0.0577.
Under RRIRWRPPRLPRPRPRPESHPRP stands 0.189.
As for RRIRIRPPRLPRPRPRPHCYPRP, the “shrunken log2 fold change” value is -0.104.
With RRIRIRPPRLPRPRPRPSAMPRP, the “shrunken log2 fold change” value is -0.349.
For RRIRFRPPRLPRPRPRPYLFPRP, the “shrunken log2 fold change” value was determined as 0.425.
The result for RRIRCRPPRLPRPRPRPTWMPRP reads -0.18; that for RRIRERPPRLPRPRPRPQKFPRP, -0.259; that for RRIRYRPPRLPRPRPRPAHFPRP, 0.0784.
Take RRIRARPPRLPRPRPRPDMAPRP: the “shrunken log2 fold change” value is 0.265.
With RRIRDRPPRLPRPRPRPADRPRP, the “shrunken log2 fold change” value stood at 0.0125.
As for RRIRFRPPRLPRPRPRPPKPPRP, the “shrunken log2 fold change” value came to 0.47.
Turning to RRIRERPPRLPRPRPRPLAWPRP, the “shrunken log2 fold change” value came to 0.039.
As to RRIRVRPPRLPRPRPRPERIPRP, the “shrunken log2 fold change” value was -0.00978.
Regarding RRIRGRPPRLPRPRPRPASSPRP, the “shrunken log2 fold change” value came to 0.653.
Under RRIRLRPPRLPRPRPRPYNAPRP stands -0.0942.
The result for RRIRKRPPRLPRPRPRPLWKPRP reads -0.206; that for RRIRTRPPRLPRPRPRPKGPPRP, 0.0618.
For RRIRGRPPRLPRPRPRPLTHPRP, the “shrunken log2 fold change” value turned out to be 0.168.
RRIRERPPRLPRPRPRPLALPRP: the “shrunken log2 fold change” value is -0.265.
For the sequence RRIRQRPPRLPRPRPRPEWYPRP, the “shrunken log2 fold change” value turned out to be 0.0539.
Take RRIRYRPPRLPRPRPRPNHNPRP: the “shrunken log2 fold change” value is -1.23.
As to RRIRKRPPRLPRPRPRPSLEPRP, the “shrunken log2 fold change” value stood at 0.286.
With RRIRARPPRLPRPRPRPHDSPRP, the “shrunken log2 fold change” value is 0.037.
Consider RRIRQRPPRLPRPRPRPHMHPRP, for which the “shrunken log2 fold change” value is -0.39.
Consider RRIRGRPPRLPRPRPRPEPHPRP, for which the “shrunken log2 fold change” value was 1.09.
For the sequence RRIRHRPPRLPRPRPRPQNMPRP, the “shrunken log2 fold change” value was -0.731.
Take RRIRRRPPRLPRPRPRPDHVPRP: the “shrunken log2 fold change” value was found to be 0.101.
For the sequence RRIRQRPPRLPRPRPRPYRNPRP, the “shrunken log2 fold change” value is -0.0521.
As for RRIRERPPRLPRPRPRPVDNPRP, the “shrunken log2 fold change” value was -0.107.
Turning to RRIRERPPRLPRPRPRPHSEPRP, the “shrunken log2 fold change” value was -0.148.
For RRIRQRPPRLPRPRPRPHYAPRP, the “shrunken log2 fold change” value was -0.0213.
Under RRIRNRPPRLPRPRPRPGNKPRP stands -0.408; under RRIRFRPPRLPRPRPRPNSEPRP, -0.406; under RRIRPRPPRLPRPRPRPAFVPRP, 0.149.
As for RRIRSRPPRLPRPRPRPIPIPRP, the “shrunken log2 fold change” value stood at 0.159.
Regarding RRIRERPPRLPRPRPRPDMCPRP, the “shrunken log2 fold change” value was 0.00902.
As for RRIRCRPPRLPRPRPRPVAKPRP, the “shrunken log2 fold change” value was 0.275.
For RRIRKRPPRLPRPRPRPKNHPRP, the “shrunken log2 fold change” value turned out to be 0.109.
Turning to RRIRFRPPRLPRPRPRPRKQPRP, the “shrunken log2 fold change” value worked out at 0.415.
With RRIRYRPPRLPRPRPRPAKPPRP, the “shrunken log2 fold change” value is -0.0319.
Consider RRIRFRPPRLPRPRPRPPCVPRP, for which the “shrunken log2 fold change” value came to 0.0878.
Under RRIRVRPPRLPRPRPRPMFDPRP stands -0.338; under RRIRMRPPRLPRPRPRPWGKPRP, 0.0449; under RRIRFRPPRLPRPRPRPKSKPRP, -0.0737.
As for RRIRFRPPRLPRPRPRPMHYPRP, the “shrunken log2 fold change” value was -0.0476.
In the case of RRIRERPPRLPRPRPRPSRGPRP, the “shrunken log2 fold change” value amounted to 0.49.
In the case of RRIRDRPPRLPRPRPRPYLHPRP, the “shrunken log2 fold change” value is -0.119.
Regarding RRIRWRPPRLPRPRPRPPGPPRP, the “shrunken log2 fold change” value came out at 0.599.
Regarding RRIRIRPPRLPRPRPRPIIFPRP, the “shrunken log2 fold change” value was -0.667.
The result for RRIRYRPPRLPRPRPRPKEAPRP reads -0.0135; that for RRIRCRPPRLPRPRPRPLCAPRP, 0.12; that for RRIRFRPPRLPRPRPRPAKGPRP, 0.141.
On to RRIRGRPPRLPRPRPRPHTQPRP, for which the “shrunken log2 fold change” value turned out to be 0.0483.
Regarding RRIRMRPPRLPRPRPRPSVRPRP, the “shrunken log2 fold change” value was -0.00857.
Take RRIRSRPPRLPRPRPRPLFLPRP: the “shrunken log2 fold change” value is -0.00337.
On to RRIRERPPRLPRPRPRPWPLPRP, for which the “shrunken log2 fold change” value is 0.0261.
For RRIRGRPPRLPRPRPRPMQAPRP, the “shrunken log2 fold change” value came out at 0.256.
In the case of RRIRQRPPRLPRPRPRPTMHPRP, the “shrunken log2 fold change” value was -0.0393.
With RRIRYRPPRLPRPRPRPATAPRP, the “shrunken log2 fold change” value worked out at 0.132.
The result for RRIRTRPPRLPRPRPRPIEIPRP reads -0.0171; that for RRIRVRPPRLPRPRPRPFPGPRP, 0.03; that for RRIRVRPPRLPRPRPRPDFIPRP, -0.396.
The result for RRIRARPPRLPRPRPRPFTPPRP reads -0.0978.
The result for RRIRHRPPRLPRPRPRPEKYPRP reads -0.159; that for RRIRNRPPRLPRPRPRPIPIPRP, -0.0823; that for RRIRMRPPRLPRPRPRPMKHPRP, 0.0546.
On to RRIRDRPPRLPRPRPRPRDRPRP, for which the “shrunken log2 fold change” value was 0.13.
RRIRCRPPRLPRPRPRPQCYPRP: the “shrunken log2 fold change” value was -0.474.
With RRIRGRPPRLPRPRPRPHFWPRP, the “shrunken log2 fold change” value stood at 0.428.
Consider RRIRFRPPRLPRPRPRPLNKPRP, for which the “shrunken log2 fold change” value is -0.522.
RRIRARPPRLPRPRPRPDHDPRP: the “shrunken log2 fold change” value worked out at 0.592.
Turning to RRIRDRPPRLPRPRPRPHAPPRP, the “shrunken log2 fold change” value was found to be 0.144.
With RRIRQRPPRLPRPRPRPHVVPRP, the “shrunken log2 fold change” value is -0.086.
Turning to RRIRDRPPRLPRPRPRPSELPRP, the “shrunken log2 fold change” value was -0.184.
Under RRIRERPPRLPRPRPRPPTVPRP stands 0.166; under RRIRPRPPRLPRPRPRPWGPPRP, 0.368; under RRIRLRPPRLPRPRPRPHMIPRP, -0.672.
Under RRIRYRPPRLPRPRPRPDERPRP stands 0.0108; under RRIRWRPPRLPRPRPRPSSHPRP, -0.248; under RRIRGRPPRLPRPRPRPFAQPRP, 0.456.
Take RRIRGRPPRLPRPRPRPWVVPRP: the “shrunken log2 fold change” value is 0.273.
The result for RRIRWRPPRLPRPRPRPARQPRP reads 0.0282.
In the case of RRIRCRPPRLPRPRPRPRCRPRP, the “shrunken log2 fold change” value is 0.285.
As to RRIRIRPPRLPRPRPRPMLAPRP, the “shrunken log2 fold change” value was 0.0524.
For the sequence RRIRRRPPRLPRPRPRPCTSPRP, the “shrunken log2 fold change” value was found to be 0.0211.
Turning to RRIRGRPPRLPRPRPRPDSTPRP, the “shrunken log2 fold change” value was 0.213.

Source of the values: the supplement of paper PMC9112550, “Optimization of the antimicrobial peptide Bac7 by deep mutational scanning” (BMC Biology, 2022).
